Laboratory results as given in paper PMC7231638.
Read-outs that look alike come from different tables or passages of the source.

Experiments:
Mre11ND Y187F [1] = molecular target: T1, Mre11ND Y187F (Pyrococcus furiosus, UniProt Q8U1N9 1-342, Y187F); assay: NMR imino proton melting
Mre11ND H52S [2] = molecular target: T2, Mre11ND H52S (Pyrococcus furiosus, UniProt Q8U1N9 1-342, H52S); assay: fluorescence polarization
[3] = molecular target: T3, Mre11 Y187F (in MRNBD);Rad50NBD (Pyrococcus furiosus;Pyrococcus furiosus, UniProt Q8U1N9;P58301 1-426;1-195+709-882, Y187F|internal_change); assay: fluorescence polarization
Mre11ND Y187F [4] = molecular target: T1, Mre11ND Y187F; assay: fluorescence polarization
Mre11ND WT [5] = molecular target: T4, Mre11ND WT (Pyrococcus furiosus, UniProt Q8U1N9 1-342); assay: fluorescence polarization
[6] = molecular target: T5, Mre11 Y187C (in MRNBD);Rad50NBD (Pyrococcus furiosus;Pyrococcus furiosus, UniProt Q8U1N9;P58301 1-426;1-195+709-882, Y187C|internal_change); assay: fluorescence polarization
[7] = molecular target: T6, Mre11 H52S (in MRNBD);Rad50NBD (Pyrococcus furiosus;Pyrococcus furiosus, UniProt Q8U1N9;P58301 1-426;1-195+709-882, H52S|internal_change); assay: fluorescence polarization
[8] = molecular target: T7, Mre11 WT (in MRNBD);Rad50NBD (Pyrococcus furiosus;Pyrococcus furiosus, UniProt Q8U1N9;P58301 1-426;1-195+709-882, |internal_change); assay: fluorescence polarization
Mre11ND Y187C [9] = molecular target: T8, Mre11ND Y187C (Pyrococcus furiosus, UniProt Q8U1N9 1-342, Y187C); assay: fluorescence polarization
Mre11ND Y187F [10] = molecular target: T1, Mre11ND Y187F; assay: fluorescence polarization; remark: listed apart in the source
[11] = molecular target: T3, Mre11 Y187F (in MRNBD);Rad50NBD; assay: fluorescence polarization; remark: listed apart in the source
[12] = molecular target: T7, Mre11 WT (in MRNBD);Rad50NBD; assay: fluorescence polarization; remark: listed apart in the source
[13] = molecular target: T6, Mre11 H52S (in MRNBD);Rad50NBD; assay: fluorescence polarization; remark: listed apart in the source
[14] = molecular target: T5, Mre11 Y187C (in MRNBD);Rad50NBD; assay: fluorescence polarization; remark: listed apart in the source
Mre11ND H52S [15] = molecular target: T2, Mre11ND H52S; assay: fluorescence polarization; remark: listed apart in the source
Mre11ND WT [16] = molecular target: T4, Mre11ND WT; assay: fluorescence polarization; remark: listed apart in the source
Mre11ND Y187C [17] = molecular target: T8, Mre11ND Y187C; assay: fluorescence polarization; remark: listed apart in the source

## CACGCACGTAGAAGCTTTTGCTTCTACGTGCGTGACT (structured_DNA) [hairpin dsDNA DSB mimic]
Mre11ND Y187F [1]
  binding result: binds

## GTGTTCGGACTCTGCCTCAAGACGGTAGTCAACGTGCTTG (ssDNA) [FAM 40-mer ssDNA]
Mre11ND H52S [2]
  Kd: 170 nM
[3]
  Kd: 190 nM
Mre11ND Y187F [4]
  Kd: 110 nM
Mre11ND WT [5]
  Kd: 130 nM
[6]
  Kd: 210 nM
[7]
  Kd: 170 nM
[8]
  Kd: 180 nM
Mre11ND Y187C [9]
  Kd: 240 nM

B1: FAM 40-mer dsDNA (dsDNA)
DNA 1: GTGTTCGGACTCTGCCTCAAGACGGTAGTCAACGTGCTTG
DNA 2: CAAGCACGTTGACTACCGTCTTGAGGCAGAGTCCGAACAC
Mre11ND Y187F [10]
  Kd: 710 nM
[11]
  Kd: 1320 nM
[12]
  Kd: 1410 nM
[13]
  Kd: 4170 nM
[14]
  Kd: 1800 nM
Mre11ND H52S [15]
  Kd: 3170 nM
Mre11ND WT [16]
  Kd: 1300 nM
Mre11ND Y187C [17]
  Kd: 1980 nM
